Values quoted from earlier work as cited in article PMC5840170.
Where two headings read alike, the source gives them in different places. One block for each substance: values may come before it.

Columns and labels:
[1] = molecular target: Vps4 (Saccharomyces cerevisiae) (UniProt P52917)
[2] = molecular target: VPS4 (Homo sapiens) (UniProt Q9UN37)
[3] = molecular target: VPS4 MIT (Homo sapiens) (UniProt Q9UN37)
[4] = molecular target: Vps4 MIT (Saccharomyces cerevisiae) (UniProt P52917)
[5] = molecular target: CdvC MIT domain (Sulfolobus acidocaldarius) (UniProt F2Z6D2)
[6] = molecular target: CdvC MIT domain (Sulfolobus acidocaldarius) (UniProt F2Z6D2); remark: listed apart in the source
[7] = molecular target: VPS4 MIT (Homo sapiens) (UniProt Q9UN37); remark: listed apart in the source
[8] = molecular target: CdvB wH domain (Sulfolobus acidocaldarius) (UniProt Q4J924)
[9] = molecular target: ESCRT-III subunit (Vps2) α5 helix (Saccharomyces cerevisiae) (UniProt P36108)
[10] = molecular target: EAP20 (Vps25) winged helix (wH) (Homo sapiens) (UniProt Q9BRG1)
[11] = molecular target: CdvC MIT domain (Sulfolobus acidocaldarius) (UniProt F2Z6D2); remark: listed apart in the source
[12] = molecular target: CdvC MIT (Sulfolobus acidocaldarius) (UniProt F2Z6D2)
[13] = molecular target: CdvB wH domain (Sulfolobus acidocaldarius) (UniProt Q4J924); remark: listed apart in the source
[14] = molecular target: CdvC MIT (Sulfolobus acidocaldarius) (UniProt F2Z6D2); remark: listed apart in the source
[15] = molecular target: VPS4 MIT (Homo sapiens) (UniProt Q9UN37); remark: listed apart in the source
[16] = molecular target: EAP20 (Homo sapiens) (UniProt Q9BRG1)
EAP20 (Homo sapiens), sequence (Q9BRG1 whole entry): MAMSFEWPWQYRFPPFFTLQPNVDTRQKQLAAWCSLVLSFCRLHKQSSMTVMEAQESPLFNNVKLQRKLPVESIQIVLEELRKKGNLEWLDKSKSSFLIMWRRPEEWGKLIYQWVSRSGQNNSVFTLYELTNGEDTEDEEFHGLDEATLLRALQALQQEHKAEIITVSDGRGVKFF

VPS4 MIT (Homo sapiens), sequence (Q9UN37 1-83): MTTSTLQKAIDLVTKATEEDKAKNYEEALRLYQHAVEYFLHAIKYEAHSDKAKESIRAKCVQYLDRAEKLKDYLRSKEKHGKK
CdvC MIT domain (Sulfolobus acidocaldarius), sequence (F2Z6D2 8-76): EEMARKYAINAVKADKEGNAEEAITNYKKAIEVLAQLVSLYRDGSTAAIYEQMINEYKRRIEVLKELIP
CdvB wH domain (Sulfolobus acidocaldarius), sequence (Q4J924 213-261): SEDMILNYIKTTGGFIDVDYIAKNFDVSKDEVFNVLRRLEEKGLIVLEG
CdvC MIT (Sulfolobus acidocaldarius), sequence (F2Z6D2 8-76): as the sequence (F2Z6D2 8-76) above
Vps2 MIM1, sequence (P36108 211-232): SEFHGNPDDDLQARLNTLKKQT
Vps4 MIT (Saccharomyces cerevisiae), sequence (P52917 1-83): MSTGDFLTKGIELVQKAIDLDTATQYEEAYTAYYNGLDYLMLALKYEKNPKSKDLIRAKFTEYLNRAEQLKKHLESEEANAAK
CdvA E3B, sequence (Q4J923 216-238): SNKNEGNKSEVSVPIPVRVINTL
CdvB1 C-terminus, sequence (Q4JBG6 195-214): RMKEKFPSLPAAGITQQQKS
Vps2, sequence (P36108 whole entry): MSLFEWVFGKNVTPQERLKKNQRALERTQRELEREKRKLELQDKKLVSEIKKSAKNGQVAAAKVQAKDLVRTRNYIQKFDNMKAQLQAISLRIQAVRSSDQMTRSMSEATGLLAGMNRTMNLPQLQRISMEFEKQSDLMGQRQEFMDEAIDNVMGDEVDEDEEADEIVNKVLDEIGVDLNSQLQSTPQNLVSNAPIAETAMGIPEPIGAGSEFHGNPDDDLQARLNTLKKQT
VPS4 (Homo sapiens), sequence (Q9UN37 whole entry): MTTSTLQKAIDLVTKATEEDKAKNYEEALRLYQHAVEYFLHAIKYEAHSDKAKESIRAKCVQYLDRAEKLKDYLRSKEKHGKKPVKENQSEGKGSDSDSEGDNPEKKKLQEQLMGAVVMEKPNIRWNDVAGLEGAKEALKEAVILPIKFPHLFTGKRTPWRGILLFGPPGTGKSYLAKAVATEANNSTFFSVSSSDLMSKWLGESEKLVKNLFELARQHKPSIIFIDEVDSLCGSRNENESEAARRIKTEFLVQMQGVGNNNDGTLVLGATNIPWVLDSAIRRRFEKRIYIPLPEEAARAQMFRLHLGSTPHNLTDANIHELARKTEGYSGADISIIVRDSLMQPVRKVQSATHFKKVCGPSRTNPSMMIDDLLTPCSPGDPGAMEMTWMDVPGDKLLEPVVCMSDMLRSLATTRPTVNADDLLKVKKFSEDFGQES
CdvB 177-261, sequence (Q4J924 177-261): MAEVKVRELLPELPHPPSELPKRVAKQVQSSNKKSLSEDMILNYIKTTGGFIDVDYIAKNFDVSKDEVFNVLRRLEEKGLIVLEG
EAP20 (Vps25) winged helix (wH) (Homo sapiens), sequence (Q9BRG1 102-176): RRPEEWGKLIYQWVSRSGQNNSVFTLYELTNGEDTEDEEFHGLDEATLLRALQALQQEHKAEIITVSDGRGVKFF
ESCRT-III subunit (Vps2) α5 helix (Saccharomyces cerevisiae), sequence (P36108 165-184): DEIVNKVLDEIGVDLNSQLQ
CdvA E3B peptide, sequence (Q4J923 214-238): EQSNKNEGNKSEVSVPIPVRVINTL
CdvB2 C-terminus, sequence (Q4J8Y4 200-219): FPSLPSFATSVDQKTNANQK
CHMP6, sequence (Q96FZ7 2-201): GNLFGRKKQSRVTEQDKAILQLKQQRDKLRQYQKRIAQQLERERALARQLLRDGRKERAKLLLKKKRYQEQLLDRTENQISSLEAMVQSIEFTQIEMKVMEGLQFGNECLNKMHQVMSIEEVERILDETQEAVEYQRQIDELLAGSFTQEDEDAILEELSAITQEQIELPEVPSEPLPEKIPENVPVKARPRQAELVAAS
CHMP6 (Vps20), sequence (Q96FZ7 2-201): as above
Vps4 central pore loops, sequence (P52917 whole entry, looked up): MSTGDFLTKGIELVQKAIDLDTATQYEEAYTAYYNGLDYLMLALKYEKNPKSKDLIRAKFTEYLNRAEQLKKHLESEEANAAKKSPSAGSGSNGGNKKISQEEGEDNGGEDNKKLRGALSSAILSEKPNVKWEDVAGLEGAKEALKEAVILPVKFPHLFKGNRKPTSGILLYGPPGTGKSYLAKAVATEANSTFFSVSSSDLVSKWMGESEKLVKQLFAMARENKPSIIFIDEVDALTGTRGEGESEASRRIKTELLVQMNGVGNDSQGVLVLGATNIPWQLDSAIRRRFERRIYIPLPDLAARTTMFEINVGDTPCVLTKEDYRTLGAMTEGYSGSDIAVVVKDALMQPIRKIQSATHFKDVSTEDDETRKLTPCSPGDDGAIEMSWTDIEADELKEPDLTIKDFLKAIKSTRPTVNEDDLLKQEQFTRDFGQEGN
Vps4 (Saccharomyces cerevisiae), sequence (P52917 whole entry): as the sequence (P52917 whole entry, looked up) above
CHMP4, sequence (Q9H444 2-224): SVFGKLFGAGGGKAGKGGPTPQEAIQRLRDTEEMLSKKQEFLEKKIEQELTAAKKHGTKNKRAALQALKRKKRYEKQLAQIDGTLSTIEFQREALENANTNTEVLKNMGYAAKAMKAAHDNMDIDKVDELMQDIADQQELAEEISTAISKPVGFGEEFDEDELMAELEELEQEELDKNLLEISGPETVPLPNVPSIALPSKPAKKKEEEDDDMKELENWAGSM

Substance: Vps2 (from UniProt P36108)
Kd [1]: 30 µM

Substance: CdvB 177-261 (from UniProt Q4J924)
Kd [5]: 30 µM

Substance: CHMP4 (from UniProt Q9H444)
Kd [7]: > 100 µM

Substance: CdvA E3B (from UniProt Q4J923)
Kd [8]: 6 µM

Substance: Vps4 central pore loops (from UniProt P52917)
Kd [9]: 2 µM

Substance: CdvB2 C-terminus (from UniProt Q4J8Y4)
Kd [11]: > 100 µM

Substance: CdvB2 C-terminus peptide (from UniProt Q4J8Y4)
Kd [12]: > 100 µM

Substance: CdvA E3B peptide (from UniProt Q4J923)
Kd [13]: 6 µM

Now from value to substance:

Kd [2]: 4.5 µM | Kd [3]: 4.5 µM
Substance: CHMP1A MIM1 (from UniProt Q9HD42)

Kd [4]: 30 µM
Substance: Vps2 MIM1 (from UniProt P36108)

Kd [6]: > 100 µM
Substance: CdvB1 C-terminus (from UniProt Q4JBG6)

Kd [10]: 7 µM
Substance: CHMP6 (Vps20) (from UniProt Q96FZ7)

Kd [14]: > 100 µM
Substance: CdvB1 C-terminus peptide (from UniProt Q4JBG6)

Kd [15]: 30 µM
Substance: CHMP6 MIM2 (from UniProt Q96FZ7)

Kd [16]: 7 µM
Substance: CHMP6 (from UniProt Q96FZ7)
